Results: patent US20160311887A1 (CAMBRIDGE ENTERPRISE, published 2016)

B1: FL α1AT Pitts C232S P2K (other)
chain: SDPQGDAAQKTDTSHHDQDHPTFNKITPNLAEFAFSLYRQLAHQSNSTNIFFSPVSIATAFAMLSLGTKADTHDEILEGLNFNLTEIPEAQIHEGFQELLRTLNQPDSQLQLTTGNGLFLSEGLKLVDKFLEDVKKLYHSEAFTVNFGDTEEAKKQINDYVEKGTQGKIVDLVKELDRDTVFALVNYIFFKGKWERPFEVKDTEEEDFHVDQVTTVKVPMMKRLGMFNIQHSKKLSSWVLLMKYLGNATAIFFLPDEGKLQHLENELTHDIITKFLENEDRRSASLHLPKLSITGTYDLKSVLGQLGITKVFSNGADLSGVTEEAPLKLSKAVHKAVLTIDEKGTEAAGAMFLEAIKRSIPPEVKFNKPFVFLMIEQNTKSPLFMGKVVNPTQK
notes: E. coli, SUMO tag removed; also called P2K α1AT Pitts; P2.G11
B2: α1AT Pitts (P1R) mutant P2WP1′I (other)
chain: SDPQGDAAQKTDTSHHDQDHPTFNKITPNLAEFAFSLYRQLAHQSNSTNIFFSPVSIATAFAMLSLGTKADTHDEILEGLNFNLTEIPEAQIHEGFQELLRTLNQPDSQLQLTTGNGLFLSEGLKLVDKFLEDVKKLYHSEAFTVNFGDTEEAKKQINDYVEKGTQGKIVDLVKELDRDTVFALVNYIFFKGKWERPFEVKDTEEEDFHVDQVTTVKVPMMKRLGMFNIQHSKKLSSWVLLMKYLGNATAIFFLPDEGKLQHLENELTHDIITKFLENEDRRSASLHLPKLSITGTYDLKSVLGQLGITKVFSNGADLSGVTEEAPLKLSKAVHKAVLTIDEKGTEAAGAMFLEAIWRIIPPEVKFNKPFVFLMIEQNTKSPLFMGKVVNPTQK
B3: FL α1AT Pitts C232S P1′K (other)
chain: SDPQGDAAQKTDTSHHDQDHPTFNKITPNLAEFAFSLYRQLAHQSNSTNIFFSPVSIATAFAMLSLGTKADTHDEILEGLNFNLTEIPEAQIHEGFQELLRTLNQPDSQLQLTTGNGLFLSEGLKLVDKFLEDVKKLYHSEAFTVNFGDTEEAKKQINDYVEKGTQGKIVDLVKELDRDTVFALVNYIFFKGKWERPFEVKDTEEEDFHVDQVTTVKVPMMKRLGMFNIQHSKKLSSWVLLMKYLGNATAIFFLPDEGKLQHLENELTHDIITKFLENEDRRSASLHLPKLSITGTYDLKSVLGQLGITKVFSNGADLSGVTEEAPLKLSKAVHKAVLTIDEKGTEAAGAMFLEAIPRKIPPEVKFNKPFVFLMIEQNTKSPLFMGKVVNPTQK
notes: E. coli, SUMO tag removed; also called P1′K α1AT Pitts; P1′.F9
B4: α1AT Pitts (P1R) mutant P2WP1′H (other)
chain: SDPQGDAAQKTDTSHHDQDHPTFNKITPNLAEFAFSLYRQLAHQSNSTNIFFSPVSIATAFAMLSLGTKADTHDEILEGLNFNLTEIPEAQIHEGFQELLRTLNQPDSQLQLTTGNGLFLSEGLKLVDKFLEDVKKLYHSEAFTVNFGDTEEAKKQINDYVEKGTQGKIVDLVKELDRDTVFALVNYIFFKGKWERPFEVKDTEEEDFHVDQVTTVKVPMMKRLGMFNIQHSKKLSSWVLLMKYLGNATAIFFLPDEGKLQHLENELTHDIITKFLENEDRRSASLHLPKLSITGTYDLKSVLGQLGITKVFSNGADLSGVTEEAPLKLSKAVHKAVLTIDEKGTEAAGAMFLEAIWRHIPPEVKFNKPFVFLMIEQNTKSPLFMGKVVNPTQK
B5: α1AT Pitts (P1R) mutant P2RP1′A (other)
chain: SDPQGDAAQKTDTSHHDQDHPTFNKITPNLAEFAFSLYRQLAHQSNSTNIFFSPVSIATAFAMLSLGTKADTHDEILEGLNFNLTEIPEAQIHEGFQELLRTLNQPDSQLQLTTGNGLFLSEGLKLVDKFLEDVKKLYHSEAFTVNFGDTEEAKKQINDYVEKGTQGKIVDLVKELDRDTVFALVNYIFFKGKWERPFEVKDTEEEDFHVDQVTTVKVPMMKRLGMFNIQHSKKLSSWVLLMKYLGNATAIFFLPDEGKLQHLENELTHDIITKFLENEDRRSASLHLPKLSITGTYDLKSVLGQLGITKVFSNGADLSGVTEEAPLKLSKAVHKAVLTIDEKGTEAAGAMFLEAIRRAIPPEVKFNKPFVFLMIEQNTKSPLFMGKVVNPTQK
notes: also called 3.E5
B6: A22 4.H11 PCI (P4KP2RP1′H) (other)
chain: APSSRRDFTFDLYRALASAAPSQNIFFSPVSISMSLAMLSLGAGSSTKMQILEGLGLNLQKSSEKELHRGFQQLLQELNQPRDGFQLSLGNALFTDLVVDLQDTFVSAMKTLYLADTFPTNFRDSAGAMKQINDYVAKQTKGKIVDLLKNLDSNAVVIMVNYIFFKAKWETSFNHKGTQEQDFYVTSETVVRVPMMSREDQYHYLLDRNLSCRVVGVPYQGNATALFILPSEGKMQQVENGLSEKTLRKWLKMFKKRQLELYLPKFSIEGSYQLEKVLPSLGISNVFTSHADLSGISNHSNIQVSEMVHKAVVEVDESGTRAAAATGTIKTRRHARLNSQRLVFNRPFLMFIVDNNILFLGKVNRP
notes: As A22 WT PCI
B7: A22 D8 PCI (P4QP2RP1′N) (other)
chain: APSSRRDFTFDLYRALASAAPSQNIFFSPVSISMSLAMLSLGAGSSTKMQILEGLGLNLQKSSEKELHRGFQQLLQELNQPRDGFQLSLGNALFTDLVVDLQDTFVSAMKTLYLADTFPTNFRDSAGAMKQINDYVAKQTKGKIVDLLKNLDSNAVVIMVNYIFFKAKWETSFNHKGTQEQDFYVTSETVVRVPMMSREDQYHYLLDRNLSCRVVGVPYQGNATALFILPSEGKMQQVENGLSEKTLRKWLKMFKKRQLELYLPKFSIEGSYQLEKVLPSLGISNVFTSHADLSGISNHSNIQVSEMVHKAVVEVDESGTRAAAATGTIQTRRNARLNSQRLVFNRPFLMFIVDNNILFLGKVNRP
notes: As A22 WT PCI
B8: A22 5.E12 PCI (P4HP2RP1′V) (other)
chain: APSSRRDFTFDLYRALASAAPSQNIFFSPVSISMSLAMLSLGAGSSTKMQILEGLGLNLQKSSEKELHRGFQQLLQELNQPRDGFQLSLGNALFTDLVVDLQDTFVSAMKTLYLADTFPTNFRDSAGAMKQINDYVAKQTKGKIVDLLKNLDSNAVVIMVNYIFFKAKWETSFNHKGTQEQDFYVTSETVVRVPMMSREDQYHYLLDRNLSCRVVGVPYQGNATALFILPSEGKMQQVENGLSEKTLRKWLKMFKKRQLELYLPKFSIEGSYQLEKVLPSLGISNVFTSHADLSGISNHSNIQVSEMVHKAVVEVDESGTRAAAATGTIHTRRVARLNSQRLVFNRPFLMFIVDNNILFLGKVNRP
notes: As A22 WT PCI

Experiments:
[1] = molecular target: T1, activated Protein C (APC) (human, UniProt P04070 43-197; P04070 212-461); assay: ratio of rate constants, APC over fXa
T1 construct: also called human plasma APC
Description: (§1) The inhibition of APC was reduced but still considerable, especially for the variants of α₁AT and the PCI variants in the presence of heparin. However, the specificity of PCI and α₁AT Pitts is not limited to thrombin and APC. […] In order not to inhibit coagulation, our variants also need to be specific for APC over fXa. We therefore also determined the rate constants of inhibition of PCI and α₁AT and their variants for fXa (Table 3). Rate constants were measured under pseudo-first-order conditions using an excess of serpin over protease. Serpin and protease were incubated together for varying lengths of time and the residual activity determined by adding an excess of chromogenic substrate (S2222) for the protease. Plots of residual protease activity over time gave the observed rate constant kobs. The second-order rate constant, k₂, is the slope of the plot of kobs versus serpin concentration (fitted using a linear regression model). Standard errors of the slope are shown (Table 3).

[2] = molecular target: T1, activated Protein C (APC); assay: ratio of rate constants, APC over thrombin
Description: (§2) Rate constants of thrombin and APC inhibition were measured under pseudo-first-order conditions using an excess of serpin over protease (Table 1). Serpin and protease were incubated together for varying lengths of time and the residual activity was determined by adding an excess of chromogenic substrate for the protease (S2238 for thrombin and […] for APC). Residual protease activity was then measured by following the absorbance at 405 nm. Plots of residual protease activity over time gave the observed rate constant kobs. The second-order rate constant, ₖ₂, is the slope of the plot of kobs versus serpin concentration (fitted using a linear regression model). Standard errors of the slope are shown.

thrombin [3] = molecular target: T2, thrombin (UniProt P00734 328-622); assay: pseudo-first-order inhibition kinetics, residual chromogenic activity
Description: as §2

[4] = molecular target: T1, activated Protein C (APC); assay: as above
Description: as §2

fXa [5] = molecular target: T3, fXa (UniProt P00742 41-179; P00742 235-488); assay: pseudo-first-order inhibition kinetics, residual chromogenic activity (S2222)
T3 construct: also called factor Xa
Description: as §1

fXa [6] = molecular target: T3, fXa; assay: single-concentration estimate (FIG. 15)
Description: 1 μM serpin was incubated with 12.5 nM protease for different amounts of time. At the indicated timepoints, the reaction was stopped by addition of an excess of chromogenic substrate (S2238 for thrombin, S2222 for fXa). The residual enzyme activity was divided by the initial enzyme activity and the natural log of this value plotted against time. The slope of these plots is the observed rate constant, kobs. To obtain an estimate of the second-order rate constant k₂, kobs was divided by the serpin concentration. […] The mutants shown all have the Pitts (M358R, P1R) mutation.
Four additional mutants were identified from this additional screen. These all had the P1R mutation and in addition had either P2RP1′A, P2RP1′Q, P2WP1′I or P2WP1′H. To verify the specificity of these mutants, an initial experiment was performed, using only one concentration of serpin and testing its inhibition of thrombin and fXa. APC inhibition was not considered at this stage, because mutants were selected based on their low inhibition of thrombin and fXa. Serpin and protease were incubated for different times and at the indicated timepoints, the reaction was stopped by addition of an excess of chromogenic substrate. Residual protease activity was divided by the initial protease activity and the natural log of this value plotted against time (FIG. 15). The slope of this line divided by the serpin concentration gives an estimate of the second-order rate constant of inhibition.

[7] = molecular target: T1, activated Protein C (APC); assay: ratio of rate constants, APC over thrombin; remark: listed apart in the source
Description: Standard errors are shown.
(§3) Preliminary second-order rate constants for the inhibition of thrombin and APC by random mutagenesis PCI variants were measured under pseudo first-order conditions using an excess of serpin over protease. Serpin and protease were incubated together for varying lengths of time and the residual activity determined by adding an excess of chromogenic substrate for the protease. Plots of residual protease activity over time gave the observed rate constant kobs. The second-order rate constant, k₂, is the slope of the plot of kobs versus serpin concentration (fitted using a linear regression model). WT and P2KP1′K are shown for comparison. The error shown is the standard error of the slope.

thrombin [8] = molecular target: T2, thrombin; assay: preliminary pseudo-first-order inhibition kinetics, residual chromogenic activity
Description: as §3

[9] = molecular target: T1, activated Protein C (APC); assay: as above
Description: as §3

T3 sequence (P00742 41-179 limits assumed, form in doubt, chain 1 of 2): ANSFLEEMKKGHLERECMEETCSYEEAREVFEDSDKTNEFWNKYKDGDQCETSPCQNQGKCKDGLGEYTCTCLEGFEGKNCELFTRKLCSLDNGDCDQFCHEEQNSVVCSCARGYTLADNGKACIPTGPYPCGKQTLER
T3 sequence (P00742 235-488 limits assumed, form in doubt, chain 2 of 2): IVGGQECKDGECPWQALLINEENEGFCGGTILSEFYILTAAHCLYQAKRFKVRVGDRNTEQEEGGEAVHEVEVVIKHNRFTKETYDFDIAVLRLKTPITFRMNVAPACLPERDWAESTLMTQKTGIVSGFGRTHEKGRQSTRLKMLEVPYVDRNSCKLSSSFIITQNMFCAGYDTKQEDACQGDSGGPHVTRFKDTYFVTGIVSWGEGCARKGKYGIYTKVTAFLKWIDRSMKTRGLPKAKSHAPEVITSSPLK
T1 sequence (P04070 43-197, chain 1 of 2): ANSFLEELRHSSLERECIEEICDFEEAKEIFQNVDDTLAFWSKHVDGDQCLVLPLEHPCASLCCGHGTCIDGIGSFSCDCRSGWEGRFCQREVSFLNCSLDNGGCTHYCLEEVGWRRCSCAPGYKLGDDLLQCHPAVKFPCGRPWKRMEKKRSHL
T1 sequence (P04070 212-461, chain 2 of 2): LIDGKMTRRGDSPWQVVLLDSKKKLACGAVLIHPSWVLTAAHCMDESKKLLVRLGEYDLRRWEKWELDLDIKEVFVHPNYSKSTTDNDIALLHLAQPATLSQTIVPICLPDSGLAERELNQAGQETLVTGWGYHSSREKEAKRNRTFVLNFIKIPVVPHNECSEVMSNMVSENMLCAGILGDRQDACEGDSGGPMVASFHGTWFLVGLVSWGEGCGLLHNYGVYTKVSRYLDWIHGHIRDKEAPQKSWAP

Row | Binder | fold reduction of the second-order rate constant compared to FL α1AT Pitts C232S (fXa [6]) [fold] | inhibition of APC/thrombin [7] [fold] | second-order rate constant of inhibition (thrombin [8]) [mM⁻¹ s⁻¹] | second-order rate constant of inhibition [9] [mM⁻¹ s⁻¹] | also measured
1 | B1 | – | – | – | – | fold inhibition APC/fXa [1]: 16.5 fold; fold inhibition APC/thrombin [2]: 1270 fold; second-order rate constant of inhibition (thrombin [3]): 0.051 mM⁻¹ s⁻¹; second-order rate constant of inhibition [4]: 64.8 mM⁻¹ s⁻¹; second-order rate constant of inhibition (fXa [5]): 3.93 mM⁻¹ s⁻¹
2 | B2 | ~10 | – | – | – | –
3 | B3 | – | – | – | – | fold inhibition APC/fXa [1]: 19.6 fold; fold inhibition APC/thrombin [2]: 563 fold; second-order rate constant of inhibition (thrombin [3]): 0.17 mM⁻¹ s⁻¹; second-order rate constant of inhibition [4]: 95.7 mM⁻¹ s⁻¹; second-order rate constant of inhibition (fXa [5]): 4.89 mM⁻¹ s⁻¹
4 | B4 | ~10 | – | – | – | –
5 | B5 | ~10 | – | – | – | –
6 | B6 | – | 21.4 | 0.021 | 0.45 | –
7 | B7 | – | 11.9 | 0.084 | 1 | –
8 | B8 | – | 11.3 | 0.023 | 0.26 | –
